For 83 variants, reverse-splicing fitness results are on record in the RNAGym collection of RNA variant scans (doi:10.1093/molbev/msab373).

To fix the notation:
B1: Azoarcus group I ribozyme (parent)
chain: GUGCCUUGCGCCGGGAAACCACGCAAGGGAUGGUGUCAAAUUCGGCGAAACCUAAGCGCCCGCCCGGGCGUAUGGCAACGCCGAGCCAAGCUUCGGCGCCUGCGCCGAUGAAGGUGUAGAGACUAGACGGCACCCACCUAAGGCAAACGCUAUGGUGAAGGCAUAGUCCAGGGAGUGGCGAAAGUCACACAAACCGG

This data set covers variants of B1. The experiment in a line: reverse-splicing fitness (ratio to wild type); higher = more active; in vitro selection; Mg2+ level not given. Put shortly: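 An in vitro group I ribozyme library with randomized positions was T7-transcribed and gel-purified. In triplicate, 10 pmol RNA in EPPS pH 7.5 was reacted with 50 pmoles of a 30-nt RNA substrate for 1 h at 37 °C across several added MgCl2 levels (1–48 mM), then stopped with EDTA. Products were reverse transcribed from a substrate-complementary primer, PCR-amplified and sequenced (HiSeq 4000). Fitness is a variant's read proportion after selection over that before, normalised to wild type.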
With C82G A111G C150U C169G U176A, the reverse-splicing fitness was determined as 0.0165.

With C82G A111G C150U C169G U176C, the reverse-splicing fitness is 0.0201.

Regarding C82G A111G C150U C169G U176G, the reverse-splicing fitness turned out to be 0.00611.

As to C82G A111G C169G, the reverse-splicing fitness was 0.00859.

For C82G A111G C169A, the reverse-splicing fitness is 0.00879.

For the variant C82G A111G C169U, the reverse-splicing fitness was 0.0143.

On to C82G A111G C150A C169U, for which the reverse-splicing fitness is 0.0115.

For C82G A111G C150A C169A, the reverse-splicing fitness came out at 0.0122.

For C82G A111G C150A C169G, the reverse-splicing fitness came to 0.0109.

C82G A111U A120C A145G C169A U176C: the reverse-splicing fitness came to 0.0267.

Turning to C82G A111U A120C A145G C169A U176G, the reverse-splicing fitness was 0.00615.

C82G A111U A120C A145G C169A U176A: the reverse-splicing fitness came out at 0.0222.

C82G A111U A120C A145U C150G C169A: the reverse-splicing fitness was 0.00911.

Turning to C82G A111U A120C A145U C150G C169G, the reverse-splicing fitness was 0.00772.

As for C82G A111U A120C A145U C150G C169U, the reverse-splicing fitness is 0.00954.

As to C82G A111U A120C C150G C169A U176C, the reverse-splicing fitness worked out at 0.0141.

In the case of C82G A111U A120C C150G C169A U176G, the reverse-splicing fitness was determined as 0.00844.

Consider C82G A111U A120C C150G C169A U176A, for which the reverse-splicing fitness was determined as 0.0137.

Regarding C82G A111U A120C A145C C169G, the reverse-splicing fitness worked out at 0.00986.

On to C82G A111U A120C A145C C169U, for which the reverse-splicing fitness stood at 0.0119.

In the case of C82G A111U A120C A145C C169A, the reverse-splicing fitness was 0.00886.

On to C82G A111U A120C A145U C150A C169A U176G, for which the reverse-splicing fitness was determined as 0.00709.

Consider C82G A111U A120C A145U C150A C169A U176C, for which the reverse-splicing fitness came to 0.0144.

On to C82G A111U A120C A145U C150A C169A U176A, for which the reverse-splicing fitness stood at 0.0187.

Regarding C82G A111U A120C A145U C150A U176C, the reverse-splicing fitness came to 0.018.

For the variant C82G A111U A120C A145U C150A U176G, the reverse-splicing fitness amounted to 0.00705.

For C82G A111U A120C A145U C150A U176A, the reverse-splicing fitness stood at 0.0101.

Regarding C82G A111G C150G C169A U176C, the reverse-splicing fitness came out at 0.0166.

Regarding C82G A111G C150G C169A U176G, the reverse-splicing fitness was found to be 0.00786.

In the case of C82G A111G C150G C169A U176A, the reverse-splicing fitness came to 0.014.

Take C82G A111U A120C A145U U176A: the reverse-splicing fitness is 0.0204.

As for C82G A111U A120C A145U U176G, the reverse-splicing fitness turned out to be 0.00709.

For C82G A111U A120C A145U U176C, the reverse-splicing fitness was 0.0279.

In the case of C82G A111U A120C A145C C150G C169U U176A, the reverse-splicing fitness worked out at 0.00676.

On to C82G A111U A120C A145C C150G C169U U176G, for which the reverse-splicing fitness turned out to be 0.00524.

As to C82G A111U A120C A145C C150G C169U U176C, the reverse-splicing fitness is 0.0113.

Consider C82G A111U A120C A145U C169G U176G, for which the reverse-splicing fitness was found to be 0.00535.

With C82G A111U A120C A145U C169G U176C, the reverse-splicing fitness came out at 0.0213.

Regarding C82G A111U A120C A145U C169G U176A, the reverse-splicing fitness turned out to be 0.0154.

Turning to C82G A111U A120C A145G C169U, the reverse-splicing fitness came out at 0.0141.

On to C82G A111U A120C A145G C169G, for which the reverse-splicing fitness was found to be 0.00963.

C82G A111U A120C A145G C169A: the reverse-splicing fitness turned out to be 0.0109.

With C82G A111U A120C C150U C169U U176A, the reverse-splicing fitness turned out to be 0.0146.

On to C82G A111U A120C C150U C169U U176G, for which the reverse-splicing fitness came out at 0.00768.

Regarding C82G A111U A120C C150U C169U U176C, the reverse-splicing fitness turned out to be 0.0139.

For C82G A111U A120C A145G C150G C169G U176A, the reverse-splicing fitness was determined as 0.0117.

As for C82G A111U A120C A145G C150G C169G U176C, the reverse-splicing fitness was found to be 0.0139.

C82G A111U A120C A145G C150G C169G U176G: the reverse-splicing fitness amounted to 0.00661.

C82G A111U A120C A145G C150U: the reverse-splicing fitness is 0.0415.

C82G A111U A120C A145G C150G: the reverse-splicing fitness was 0.0114.

Take C82G A111U A120C A145G C150A: the reverse-splicing fitness was 0.0162.

C82G A111U A120G A145C: the reverse-splicing fitness is 0.0134.

C82G A111G C150A C169G U176G: the reverse-splicing fitness was 0.00751.

For the variant C82G A111G C150A C169G U176C, the reverse-splicing fitness worked out at 0.0228.

For the variant C82G A111G C150A C169G U176A, the reverse-splicing fitness amounted to 0.0217.

C82G A111U A120C A145G C169U U176C: the reverse-splicing fitness worked out at 0.0156.

Turning to C82G A111U A120C A145G C169U U176G, the reverse-splicing fitness was 0.00528.

For C82G A111U A120C A145G C169U U176A, the reverse-splicing fitness came out at 0.0138.

As to C82G A111G C169G U176C, the reverse-splicing fitness worked out at 0.0239.

In the case of C82G A111G C169G U176G, the reverse-splicing fitness came to 0.0047.

Consider C82G A111G C169G U176A, for which the reverse-splicing fitness worked out at 0.0197.

In the case of C82G A111U A120C A145G C150G C169A U176C, the reverse-splicing fitness is 0.0149.

For the variant C82G A111U A120C A145G C150G C169A U176G, the reverse-splicing fitness worked out at 0.0104.

C82G A111U A120C A145G C150G C169A U176A: the reverse-splicing fitness is 0.0145.

As to C82G A111U A120C A145G C150U C169U, the reverse-splicing fitness is 0.0134.

On to C82G A111U A120C A145G C150U C169A, for which the reverse-splicing fitness stood at 0.0111.

On to C82G A111U A120C A145G C150U C169G, for which the reverse-splicing fitness was found to be 0.00889.

On to C82G A111U A120C A145G C150G C169A, for which the reverse-splicing fitness worked out at 0.00998.

As to C82G A111U A120C A145G C150G C169U, the reverse-splicing fitness came to 0.0106.

With C82G A111U A120C A145G C150G C169G, the reverse-splicing fitness worked out at 0.00753.

C82G A111U A120C A145G C150A C169A: the reverse-splicing fitness was 0.0113.

In the case of C82G A111U A120C A145G C150A C169G, the reverse-splicing fitness amounted to 0.00949.

Regarding C82G A111U A120C A145G C150A C169U, the reverse-splicing fitness is 0.0121.

As for C82G A111U A120C C150U C169G U176C, the reverse-splicing fitness turned out to be 0.0194.

Consider C82G A111U A120C C150U C169G U176G, for which the reverse-splicing fitness is 0.00625.

For the variant C82G A111U A120C C150U C169G U176A, the reverse-splicing fitness came out at 0.0159.

Take C82G A111G C150A C169U U176A: the reverse-splicing fitness is 0.0165.

Turning to C82G A111G C150A C169U U176G, the reverse-splicing fitness stood at 0.00706.

For the variant C82G A111G C150A C169U U176C, the reverse-splicing fitness worked out at 0.0146.

With C82G A111U A120C A145U C150U C169G U176A, the reverse-splicing fitness came out at 0.016.

As to C82G A111U A120C A145U C150U C169G U176G, the reverse-splicing fitness turned out to be 0.00568.

With C82G A111U A120C A145U C150U C169G U176C, the reverse-splicing fitness came out at 0.0194.

C82G A111U A120C A145U C150G U176G: the reverse-splicing fitness is 0.00406.
